Laboratory results as given in article PMC4837325, “Arabidopsis HIGH PLOIDY2 Sumoylates and Stabilizes Flowering Locus C through Its E3 Ligase Activity” (Frontiers in Plant Science, 2016).

Molecular target: T1, GST-HPY2 (Arabidopsis thaliana, UniProt Q8GYH7 1-249)
T1 construct: HIGH PLOIDY2 (HPY2), E3 SUMO ligase of Arabidopsis, full-length cDNA cloned into pGEX4T-1; also called HIGH PLOIDY2; AtHPY2; source: E. coli BL21, purified (glutathione resin)
T1 sequence (looked up): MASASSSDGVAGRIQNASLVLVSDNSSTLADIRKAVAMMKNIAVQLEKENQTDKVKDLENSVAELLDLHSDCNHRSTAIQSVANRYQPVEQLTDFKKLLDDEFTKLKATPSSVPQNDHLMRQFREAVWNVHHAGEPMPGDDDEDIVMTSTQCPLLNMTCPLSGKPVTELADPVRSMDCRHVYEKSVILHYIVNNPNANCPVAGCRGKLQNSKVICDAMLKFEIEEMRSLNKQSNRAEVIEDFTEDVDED
Experiment: pull-down; in vitro GST pull-down, 2 ug each of GST-HPY2 bait and His6-FLC prey; His6-FLC detected by Western blot with anti-His antibody
Conditions: both partners purified

- binding result: binds
B1: His6-FLC (natural protein, Arabidopsis thaliana, UniProt Q9S7Q7 1-196, looked up)
chain: MGRKKLEIKRIENKSSRQVTFSKRRNGLIEKARQLSVLCDASVALLVVSASGKLYSFSSGDNLVKILDRYGKQHADDLKALDHQSKALNYGSHYELLELVDSKLVGSNVKNVSIDALVQLEEHLETALSVTRAKKTELMLKLVENLKEKEKMLKEENQVLASQMENNHHVGAEAEMEMSPAGQISDNLPVTLPLLN
notes: Flowering Locus C (FLC), MADS-box transcription factor of Arabidopsis, full-length cDNA cloned into pET28a; also called Flowering Locus C; source: E. coli BL21, purified (Ni2+-NTA resin)
